Our source for the peptide exchange yield values is patent US11352401.

In the first assay the target is T1, HLA-A*01 (human).
T1 construct: MHC monomer made peptide-receptive by UV cleavage of a UV-sensitive ligand; also called peptide-receptive MHC class I monomer
In words: UV peptide-exchange ELISA; +++ = yield >50%. The text has this: Candidate peptides for T cell based therapies according to the present invention were further tested for their MHC binding capacity (affinity). The individual peptide-MHC complexes were produced by UV-ligand exchange, where a UV-sensitive peptide is cleaved upon UV-irradiation, and exchanged with the peptide of interest as analyzed. Only peptide candidates that can effectively bind and stabilize the peptide-receptive MHC molecules prevent dissociation of the MHC complexes. To determine the yield of the exchange reaction, an ELISA was performed based on the detection of the light chain (β2m) of stabilized MHC complexes. The assay was performed as generally described in Rodenko et al. (Rodenko et al., 2006).
96 well MAXISorp plates (NUNC) were coated over night with 2 ug/ml streptavidin in PBS at room temperature, washed 4× and blocked for 1 h at 37° C. in 2% BSA containing blocking buffer. […] Peptide-MHC monomers of the UV-exchange reaction were diluted 100-fold in blocking buffer. Samples were incubated for 1 h at 37° C., washed four times, incubated with 2 ug/ml HRP conjugated anti-β2m for 1h at 37° C., washed again and detected with TMB solution that is stopped with […]. Absorption was measured at 450 nm.
Regarding VTDGINPLIDRY [VTDGINPLIDRY (SEQ ID NO: 190)], the peptide exchange yield was 50 to 75%.
Same read-out and setting: with TSAHPEDSSFY [TSAHPEDSSFY (SEQ ID NO: 184)] the figure was 50 to 75%; with VTDGSLYEGVAY [VTDGSLYEGVAY (SEQ ID NO: 191)], 50 to 75%.
As to TADGKTYYY [TADGKTYYY (SEQ ID NO: 181)], the peptide exchange yield was in the range of 50 to 75%.
Same read-out and setting: the same measure for DTDSQRLAY [DTDSQRLAY (SEQ ID NO: 402)]: 50 to 75%; for TTDIIEKY [TTDIIEKY (SEQ ID NO: 186)]: 50 to 75%; for ELDSKVEVLTY [ELDSKVEVLTY (SEQ ID NO: 403)]: 50 to 75%.
As for ASEQQALHTVQY [ASEQQALHTVQY (SEQ ID NO: 398)], the peptide exchange yield is 50 to 75%.
Same read-out and setting: the same measure for SRTINVSNLY [SRTINVSNLY (SEQ ID NO: 176)]: 50 to 75%; for VSDAKLDKY [VSDAKLDKY (SEQ ID NO: 188)]: 50 to 75%; for VVDSVGGYLY [VVDSVGGYLY (SEQ ID NO: 195)]: 50 to 75%.
Same read-out and setting: the same measure for YADTVRPEFY [YADTVRPEFY (SEQ ID NO: 197)]: 50 to 75%; for TDYHVRVY [TDYHVRVY (SEQ ID NO: 182)]: 50 to 75%; for VADLHLYLY [VADLHLYLY (SEQ ID NO: 187)]: 50 to 75%.
On to ATDISRQNEY [ATDISRQNEY (SEQ ID NO: 400)], for which the peptide exchange yield lay within 50 to 75%.

For the next assay, the target named is T2, HLA-A*02 (human).
T2 construct: MHC monomer made peptide-receptive by UV cleavage of a UV-sensitive ligand; also called peptide-receptive MHC class I monomer
In words: UV peptide-exchange ELISA; ++++ = yield >75%.
For LLQGAIESV [LLQGAIESV (SEQ ID NO: 107)], the peptide exchange yield was greater than 75%.
On the same count and under the same terms, with FLDPNARPLV [FLDPNARPLV (SEQ ID NO: 117)] the figure was greater than 75%.
For VLQPFLPSI [VLQPFLPSI (SEQ ID NO: 125)], the peptide exchange yield was greater than 75%.
Same read-out and setting: the same measure for FLGTTPTL [FLGTTPTL (SEQ ID NO: 128)]: greater than 75%; for TLYPYQISQL [TLYPYQISQL (SEQ ID NO: 87)]: greater than 75%.
On to ALWLVDPLTV [ALWLVDPLTV (SEQ ID NO: 132)], for which the peptide exchange yield was greater than 75%.
As to SLLTHIPTA [SLLTHIPTA (SEQ ID NO: 105)], the peptide exchange yield was greater than 75%.
GMLDIFWGV [GMLDIFWGV (SEQ ID NO: 104)] registered a peptide exchange yield greater than 75%.
Same read-out and setting: with FLYYPDPVL [FLYYPDPVL (SEQ ID NO: 103)] the figure was greater than 75%; with RTADITVTV [RTADITVTV (SEQ ID NO: 119)], greater than 75%; with VLMEENSKL [VLMEENSKL (SEQ ID NO: 116)], greater than 75%.
Take SVASVLLYL [SVASVLLYL (SEQ ID NO: 124)]: the peptide exchange yield is greater than 75%.
On the same count and under the same terms, the same measure for HIMPTVHTV [HIMPTVHTV (SEQ ID NO: 390)]: greater than 75%.
As to SLIDMRGIETV [SLIDMRGIETV (SEQ ID NO: 391)], the peptide exchange yield is greater than 75%.
YVDINTFRL [YVDINTFRL (SEQ ID NO: 84)] came in with a peptide exchange yield greater than 75%.
Consider VQMVITEAQKV [VQMVITEAQKV (SEQ ID NO: 88)], for which the peptide exchange yield is greater than 75%.
The molecule RQYPTPFQL [RQYPTPFQL (SEQ ID NO: 100)] registered a peptide exchange yield greater than 75%.
The same measure, in the same setting: with ILSTTMVTV [ILSTTMVTV (SEQ ID NO: 89)] the figure was greater than 75%; with TLQEKILQV [TLQEKILQV (SEQ ID NO: 93)], greater than 75%.
Regarding SVSDGIHSV [SVSDGIHSV (SEQ ID NO: 112)], the peptide exchange yield was greater than 75%.
Same read-out and setting: with FSIPEGALVAV [FSIPEGALVAV (SEQ ID NO: 388)] the figure was greater than 75%.
ALLEMFPEITV [ALLEMFPEITV (SEQ ID NO: 122)] showed a peptide exchange yield greater than 75%.
The same measure, in the same setting: with VLPDIETLIGV [VLPDIETLIGV (SEQ ID NO: 94)] the figure was greater than 75%; with ALLANLPAV [ALLANLPAV (SEQ ID NO: 120)], greater than 75%; with LQSSGLTLLL [LQSSGLTLLL (SEQ ID NO: 98)], greater than 75%.
Same read-out and setting: the same measure for VLALVNSTV [VLALVNSTV (SEQ ID NO: 97)]: greater than 75%; for MTLPVDAVISV [MTLPVDAVISV (SEQ ID NO: 133)]: greater than 75%; for AVLTGLVEV [AVLTGLVEV (SEQ ID NO: 113)]: greater than 75%.
Still for that read-out and setting: the same measure for LLKEFVQRV [LLKEFVQRV (SEQ ID NO: 131)]: greater than 75%; for FVIDGFDEL [FVIDGFDEL (SEQ ID NO: 86)]: greater than 75%.
For HLVGGLHTV [HLVGGLHTV (SEQ ID NO: 96)], the peptide exchange yield was greater than 75%.
In turn, FIIDTTYPAYV [FIIDTTYPAYV (SEQ ID NO: 106)] yielded a peptide exchange yield greater than 75%.
In the case of MLLETQDALYV [MLLETQDALYV (SEQ ID NO: 115)], the peptide exchange yield is greater than 75%.
On the same count and under the same terms, with SLLEQAIAL [SLLEQAIAL (SEQ ID NO: 102)] the figure was greater than 75%.
ILDERQVLL [ILDERQVLL (SEQ ID NO: 114)] had a peptide exchange yield greater than 75%.
The same measure, in the same setting: with LLLGSIGLLGV [LLLGSIGLLGV (SEQ ID NO: 109)] the figure was greater than 75%; with ALSSVLHSI [ALSSVLHSI (SEQ ID NO: 118)], greater than 75%; with NLWGGQGLLGV [NLWGGQGLLGV (SEQ ID NO: 130)], greater than 75%.
Still for that read-out and setting: the same measure for ALVDTLTGI [ALVDTLTGI (SEQ ID NO: 121)]: greater than 75%.
Molecule ITIGVLARV [ITIGVLARV (SEQ ID NO: 95)] showed a peptide exchange yield greater than 75%.
The same measure, in the same setting: with LLADFQALL [LLADFQALL (SEQ ID NO: 110)] the figure was greater than 75%; with GLDGSLVFL [GLDGSLVFL (SEQ ID NO: 127)], greater than 75%.
On the same count and under the same terms, the same measure for VLYDKDAVYV [VLYDKDAVYV (SEQ ID NO: 129)]: greater than 75%; for TLMEQPLTTL [TLMEQPLTTL (SEQ ID NO: 389)]: greater than 75%; for YIDEFQSLV [YIDEFQSLV (SEQ ID NO: 85)]: greater than 75%.
On the same count and under the same terms, with FLSTVTSV [FLSTVTSV (SEQ ID NO: 126)] the figure was greater than 75%; with FLKEKVPGI [FLKEKVPGI (SEQ ID NO: 99)], greater than 75%.
